Laboratory results reported in patent US20150241442A1.

Target: Leukocyte Function Antigen-1 (LFA-1), on cells (Jurkat T cells, human T cells, PBMC) (human) (UniProt P20701)
Assay: cell-based or functional assay

Chain of Leukocyte Function Antigen-1 (LFA-1), on cells (Jurkat T cells, human T cells, PBMC) (human) (P20701 26-1170, chain 1 of 2): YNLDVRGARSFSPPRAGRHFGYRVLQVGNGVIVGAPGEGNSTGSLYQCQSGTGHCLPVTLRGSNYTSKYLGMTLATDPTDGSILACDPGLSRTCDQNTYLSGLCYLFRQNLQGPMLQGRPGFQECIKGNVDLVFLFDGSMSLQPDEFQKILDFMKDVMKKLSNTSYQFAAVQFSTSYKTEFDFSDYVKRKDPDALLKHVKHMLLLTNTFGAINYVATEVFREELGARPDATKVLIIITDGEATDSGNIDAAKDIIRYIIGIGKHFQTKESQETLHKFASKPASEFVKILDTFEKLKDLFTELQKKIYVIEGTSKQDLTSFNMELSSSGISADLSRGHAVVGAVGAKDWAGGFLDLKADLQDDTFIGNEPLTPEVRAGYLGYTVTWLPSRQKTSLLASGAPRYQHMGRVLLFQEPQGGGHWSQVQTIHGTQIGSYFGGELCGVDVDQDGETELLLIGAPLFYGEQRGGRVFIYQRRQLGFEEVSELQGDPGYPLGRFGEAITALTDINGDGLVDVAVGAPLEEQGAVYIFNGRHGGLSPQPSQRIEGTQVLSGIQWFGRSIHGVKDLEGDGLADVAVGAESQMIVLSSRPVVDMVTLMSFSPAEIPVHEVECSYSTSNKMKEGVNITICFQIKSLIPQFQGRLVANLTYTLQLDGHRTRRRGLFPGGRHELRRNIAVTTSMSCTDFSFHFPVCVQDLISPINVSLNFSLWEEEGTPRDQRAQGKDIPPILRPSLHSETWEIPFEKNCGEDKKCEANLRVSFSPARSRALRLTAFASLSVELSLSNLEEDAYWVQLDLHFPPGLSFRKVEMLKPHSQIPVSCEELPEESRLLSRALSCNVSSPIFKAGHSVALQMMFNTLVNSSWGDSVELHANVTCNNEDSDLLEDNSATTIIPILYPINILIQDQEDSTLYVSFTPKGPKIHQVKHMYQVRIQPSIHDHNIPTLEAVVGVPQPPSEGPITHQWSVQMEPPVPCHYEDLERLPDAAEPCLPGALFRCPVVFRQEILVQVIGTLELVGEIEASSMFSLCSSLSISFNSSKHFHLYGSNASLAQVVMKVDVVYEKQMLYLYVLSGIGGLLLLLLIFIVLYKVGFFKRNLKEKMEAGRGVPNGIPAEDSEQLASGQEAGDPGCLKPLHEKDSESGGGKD
Chain of Leukocyte Function Antigen-1 (LFA-1), on cells (Jurkat T cells, human T cells, PBMC) (human) (P05107 23-769, chain 2 of 2, further chain): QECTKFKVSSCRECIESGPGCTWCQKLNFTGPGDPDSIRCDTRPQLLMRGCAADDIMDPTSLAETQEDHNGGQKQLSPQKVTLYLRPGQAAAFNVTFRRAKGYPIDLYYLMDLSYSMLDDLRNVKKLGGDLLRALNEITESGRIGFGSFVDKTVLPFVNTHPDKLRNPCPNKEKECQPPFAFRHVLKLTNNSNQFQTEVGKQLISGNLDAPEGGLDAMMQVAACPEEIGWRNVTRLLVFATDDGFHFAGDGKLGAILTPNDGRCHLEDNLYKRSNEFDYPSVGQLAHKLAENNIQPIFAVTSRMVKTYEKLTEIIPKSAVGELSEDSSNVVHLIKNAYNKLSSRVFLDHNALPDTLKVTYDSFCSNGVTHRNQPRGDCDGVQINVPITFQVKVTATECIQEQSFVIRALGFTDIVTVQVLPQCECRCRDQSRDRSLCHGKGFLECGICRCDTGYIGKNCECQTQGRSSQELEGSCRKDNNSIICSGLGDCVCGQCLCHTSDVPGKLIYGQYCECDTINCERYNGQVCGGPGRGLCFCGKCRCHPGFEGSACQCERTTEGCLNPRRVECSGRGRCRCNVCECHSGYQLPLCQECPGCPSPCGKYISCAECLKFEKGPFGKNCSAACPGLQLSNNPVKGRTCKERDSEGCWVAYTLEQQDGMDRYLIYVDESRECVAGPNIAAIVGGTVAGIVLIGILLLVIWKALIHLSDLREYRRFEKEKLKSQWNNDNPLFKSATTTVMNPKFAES

frequency of the perforin negative population, CD56+CD8med cells [%]	granzyme-A negative population, CD56+CD8high cells [%]	Binder
19.8	3.07	recombinant human ICAM3-FC (Fc fusion, UniProt P32942 30-485, looked up, not shown: a dimerising Fc or GST) QEFLLRVEPQNPVLSAGGSLFVNCSTDCPSSEKIALETSLSKELVASGMGWAAFNLSNVTGNSRILCSVYCNGSQITGSSNITVYRLPERVELAPLPPWQPVGQNFTLRCQVEDGSPRTSLTVVLLRWEEELSRQPAVEEPAEVTATVLASRDDHGAPFSCRTELDMQPQGLGLFVNTSAPRQLRTFVLPVTPPRLVAPRFLEVETSWPVDCTLDGLFPASEAQVYLALGDQMLNATVMNHGDTLTATATATARADQEGAREIVCNVTLGGERREARENLTVFSFLGPIVNLSEPTAHEGSTVTVSCMAGARVQVTLDGVPAAAPGQPAQLQLNATESDDGRSFFCSATLEVDGEFLHRNSSVQLRVLYGPKIDRATCPQHLKWKDKTRHVLQCQARGNPYPELRCLKEGSSREVPVGIPFFVNVTHNGTYQCQASSSRGKYTLVVVMDIEAGSSH
21.5	58.3	recombinant human ICAM2-FC (Fc fusion, UniProt P13598 25-223, looked up, not shown: a dimerising Fc or GST) KVFEVHVRPKKLAVEPKGSLEVNCSTTCNQPEVGGLETSLDKILLDEQAQWKHYLVSNISHDTVLQCHFTCSGKQESMNSNVSVYQPPRQVILTLQPTLVAVGKSFTIECRVPTVEPLDSLTLFLFRGNETLHYETFGKAAPAPQEATATFNSTADREDGHRNFSCLAVLDLMSRGGNIFHKHSAPKMLEIYEPVSDSQ
